Laboratory results: article PMC8489928 (mAbs, 2021)
Substitutions are numbered along the chain they refer to. In names and notes the source's numbering stands.

What was measured:
Mouse CD96 D1 (mouse) = Mouse CD96 D1 (mouse) (UniProt Q3U0X8); assay: SEC-MALS
Human CD96 D1 (human) = Human CD96 D1 (human) (UniProt P40200); assay: SEC-MALS
SEC-MALS = biological target: the molecule itself; assay: SEC-MALS
Mouse CD96 D1 [1] = biological target: T1, Mouse CD96 D1 (mouse, UniProt Q3U0X8); assay: SPR
Mouse CD96 D1 [2] = biological target: T1, Mouse CD96 D1; assay: SEC-MALS

## Mouse CD155 (ligand)
Mouse CD96 D1 (mouse)
  stoichiometry N: 1

## Human CD155 (from UniProt P15151 21-417) (ligand)
Human CD96 D1 (human)
  stoichiometry N: 1

B1: Human CD96 D1 (domain or fragment, UniProt P40200 22-140, looked up)
chain: VWEKTVNTEENVYATLGSDVNLTCQTQTVGFFVQMQWSKVTNKIDLIAVYHPQYGFYCAYGRPCESLVTFTETPENGSKWTLHLRNMSCSVSGRYECMLVLYPEGIQTKIYNLLIQTHV
SEC-MALS
  stoichiometry N: 2

B2: Mouse CD96 D1 (domain or fragment, UniProt Q3U0X8 22-134, looked up)
chain: VWEELFNVGDDVYALPGSDINLTCQTKEKNFLVQMQWSKVTDKNDMIALYHPQYGLYCGQEHACESQVAATETEKGVTNWTLYLRNISSALGGKYECIFTLYPEGIKTTVYNL
SEC-MALS
  stoichiometry N: 2

B3: Human CD96 D1-D3 (domain or fragment, UniProt P40200 22-519, looked up)
chain: VWEKTVNTEENVYATLGSDVNLTCQTQTVGFFVQMQWSKVTNKIDLIAVYHPQYGFYCAYGRPCESLVTFTETPENGSKWTLHLRNMSCSVSGRYECMLVLYPEGIQTKIYNLLIQTHVTADEWNSNHTIEIEINQTLEIPCFQNSSSKISSEFTYAWSVENSSTDSWVLLSKGIKEDNGTQETLISQNHLISNSTLLKDRVKLGTDYRLHLSPVQIFDDGRKFSCHIRVGPNKILRSSTTVKVFAKPEIPVIVENNSTDVLVERRFTCLLKNVFPKANITWFIDGSFLHDEKEGIYITNEERKGKDGFLELKSVLTRVHSNKPAQSDNLTIWCMALSPVPGNKVWNISSEKITFLLGSEISSTDPPLSVTESTLDTQPSPASSVSPARYPATSSVTLVDVSALRPNTTPQPSNSSMTTRGFNYPWTSSGTDTKKSVSRIPSETYSSSPSGAGSTLHDNVFTSTARAFSEVPTTANGSTKTNHVHITGIVVNKPKDGM
SEC-MALS
  stoichiometry N: 2

B4: Mouse CD96 D1-D3 (domain or fragment, UniProt Q3U0X8 22-536, looked up)
chain: VWEELFNVGDDVYALPGSDINLTCQTKEKNFLVQMQWSKVTDKNDMIALYHPQYGLYCGQEHACESQVAATETEKGVTNWTLYLRNISSALGGKYECIFTLYPEGIKTTVYNLIVEPYTQDEHNYTIEIETNRTLEIPCFQNTSSEIPPRFTFSWLVEKDGVEEVLFTHHHHVNNSTSFKGRIRLGGDYRLHLSPVQIQDDGRTFSCHLTVNPLKAWKMSTTVKVFAKPEILMTVENSTMDVLGERVFTCLLKNVFPKANITWFIDGRFLQGNEEGIYITNEEKNCSSGFWELKSVLTRMHSGPSQSNNMTAWCMALSPGPRNKMWNTSSQPITVSFDSVIAPTKHLPTVTGSTLGTQPFSDAGVSPTGYLATPSVTIVDENGLTPDATPQTSNSSMTTKDGNYLEASSGTDAKNSSRAAASSKSGSWPFPFTSPPEWHSLPGTSTGPQEPDSPVSWIPSEVHTSAPLDASLAPHDTIISTTTEFPNVLTTANGTTKIDHGPITSIIVNQPSDGM
SEC-MALS
  stoichiometry N: 2

B5: mCD96-A heavy-chain G56K (Fab, V domains shown)
VH: QVQLKESGPGLVQPSQTLSLTCTVSGLSLTTNSVSWIRQPPGKGLEWMGVIWSNGKTDYNSDIKSRLSISRDTSKSQVFLKMNSLQTEDTAMYFCARNFPYPGINFDWGQGVMVTVSS
VL: QAVVTQESALTTLPGGTVTLTCHSSTGAVTTSNYANWIQEKADHSFTAILGGTSNRAPGTPARFSGSLLEGKAALTITGAQVEDEATYFCSLWYSGHLIFGGGTKLTVK
Mouse CD96 D1 [1]
  binding result: binds

B6: mCD96-A light-chain G50H (Fab, V domains shown)
VH: B5 VH with K56G
VL: B5 VL with G52H
Mouse CD96 D1 [1]
  binding result: binds

B7: mCD96-A Fab (Fab, V domains shown)
VH: B5 VH with K56G
VL: B5 VL
Mouse CD96 D1 [2]
  stoichiometry N: 1

B8: mCD96-A-7 Fab (Fab, V domains shown)
VH: B5 VH with F106M
VL: B5 VL with G52H
Mouse CD96 D1 [2]
  stoichiometry N: 1

B9: mCD96-A heavy-chain F101M (Fab, V domains shown)
VH: B5 VH with K56G, F106M
VL: B5 VL
Mouse CD96 D1 [1]
  binding result: binds
